Results published in patent US20230265151A1, “GIP/GLP1 CO-AGONIST COMPOUNDS” (priority 2020, published 2023).

T1: human GIP receptor (human, UniProt P48546 22-466)
T1 construct: whole, on cells; also called hGIPR; human glucose-dependent insulinotropic polypeptide receptor
T1 sequence (looked up): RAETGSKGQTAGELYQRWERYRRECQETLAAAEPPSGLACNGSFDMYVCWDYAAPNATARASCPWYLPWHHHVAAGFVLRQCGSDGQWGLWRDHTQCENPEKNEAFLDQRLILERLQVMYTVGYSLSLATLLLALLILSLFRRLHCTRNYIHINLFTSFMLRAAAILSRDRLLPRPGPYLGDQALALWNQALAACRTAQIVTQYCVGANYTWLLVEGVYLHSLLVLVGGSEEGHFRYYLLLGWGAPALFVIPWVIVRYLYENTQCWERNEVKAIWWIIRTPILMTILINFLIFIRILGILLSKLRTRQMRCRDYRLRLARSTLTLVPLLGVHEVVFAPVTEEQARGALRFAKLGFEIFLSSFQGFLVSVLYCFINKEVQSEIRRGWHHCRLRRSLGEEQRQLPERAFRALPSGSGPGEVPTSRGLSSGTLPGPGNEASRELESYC


Experiments:
human GIP receptor = target: T1, human GIP receptor; test: SPA competition vs [125I]-GIP, hGIPR membranes
Experimental: (§1) The binding buffer contains 25 mM HEPES, pH 7.4, 2.5 mM CaCl₂, 1 mM MgCl₂, 0.1% (w/v) bacitracin, 0.003% (w/v) TWEEN®-20, and Roche Complete™ Protease Inhibitors without EDTA. […] Plates are sealed and mixed on a plate shaker (setting 6) for 1 minute and read with a PerkinElmer Trilux MicroBeta® scintillation counter after 2.5 to 12 hours of incubation/settling time at room temperature.
(§2) Data are analyzed using four-parameter (curve maximum, curve minimum, IC₅₀, Hill slope) nonlinear regression routines (Genedata Screener, version 12.0.4, Genedata AG, Basal, Switzerland). […] Values for Kᵢ are reported as the geometric mean, with error expressed as the standard error of the mean (SEM) and n is equal to the number of independent replicates (determined in assays performed on different days). Geometric Means are calculated as follows: […]

human GLP-1 receptor = target: T2, human GLP-1 receptor (human, UniProt P43220 24-463); test: SPA competition vs [125I]-GLP-1, hGLP-1R membranes
T2 construct: whole, on cells; also called hGLP-1R; human glucagon-like peptide-1 receptor
Experimental: The binding buffer contains 25 mM HEPES, pH 7.4, 2.5 mM CaCl₂, 1 mM MgCl₂, 0.1% (w/v) bacitracin, 0.003% (w/v) TWEEN®-20, and Roche Complete™ Protease Inhibitors without EDTA.
as §2

human glucagon receptor [1] = target: T3, human glucagon receptor (human, UniProt P47871 26-477); test: SPA competition vs [125I]-Gcg, hGcgR membranes
T3 construct: whole, on cells; also called hGCGR; hGcgR
Experimental: as §1, with “4-(2-hydroxyethyl)-1-piperazineethanesulfonic acid (HEPES),” for “HEPES,”, “MgCh,” for “MgCl₂,”, “bacitracin (Research Products),” for “bacitracin,”, “Polyoxyethylenesorbitan monolaurate (TWEEN®-20),” for “TWEEN®-20,”, “after” for “after 2.5 to”
T3 sequence (P47871 26-477): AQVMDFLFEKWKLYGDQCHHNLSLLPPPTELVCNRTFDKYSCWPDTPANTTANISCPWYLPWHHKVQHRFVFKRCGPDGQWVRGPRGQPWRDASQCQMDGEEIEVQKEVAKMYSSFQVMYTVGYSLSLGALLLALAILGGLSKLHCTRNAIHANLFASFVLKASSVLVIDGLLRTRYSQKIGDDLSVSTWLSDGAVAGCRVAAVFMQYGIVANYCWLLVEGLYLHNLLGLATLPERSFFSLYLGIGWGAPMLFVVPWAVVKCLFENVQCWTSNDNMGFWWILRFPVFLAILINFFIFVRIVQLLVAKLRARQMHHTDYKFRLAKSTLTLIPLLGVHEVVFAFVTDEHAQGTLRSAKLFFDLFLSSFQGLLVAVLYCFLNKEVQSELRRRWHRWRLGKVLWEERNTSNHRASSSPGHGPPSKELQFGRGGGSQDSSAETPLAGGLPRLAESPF
Data are analyzed using four-parameter (curve maximum, curve minimum, IC₅₀, Hill slope) nonlinear regression routines (Genedata Screener, version 12.0.4, Genedata AG, Basal, Switzerland). […] Values for Kᵢ are reported as the geometric mean, with error expressed as the standard error of the mean (SEM) and n is equal to the number of independent replicates (determined in assays performed on different days).

human glucagon receptor [2] = target: human glucagon receptor (human, UniProt P47871 26-477); test: cell-based or functional assay

| Binder | Ki (human GIP receptor) | Ki (human GLP-1 receptor) | Ki (human glucagon receptor [1]) | cAMP EC50 (1.0% HSA) (human glucagon receptor [2]) |
| --- | --- | --- | --- | --- |
| YXEGTXTSDXSIXLDXKAQXEFIXXLIEGKPSSGAPPPS (Aib2, αMeF(2F)6, 4Pal10, αMeL13, Orn16, K17(Z1), Aib20, D-Glu24, αMeY25, K30(Z1), C-term NH2; Z1=AEEA2-(γ-Glu)-CO-(CH2)14-CH3) | 0.0361 nM | 0.52 nM | 0.646 nM | – |
| YXEGTXTSDXSIXLDXKAQXKFIXXLIEGGPSSGAPPPS (Aib2, αMeF(2F)6, 4Pal10, αMeL13, Orn16, K17(Z1), Aib20, K21(Z1), D-Glu24, αMeY25, C-term NH2; Z1=AEEA2-(γ-Glu)-CO-(CH2)10-CH3) | 0.0403 nM | 0.25 nM | 8.29 nM | – |
| YXEGTXTSDXSIXLDXKAQXEFIXXLIKGGPSSGAPPPS (Aib2, αMeF(2F)6, 4Pal10, αMeL13, Orn16, K17(Z1), Aib20, D-Glu24, αMeY25, K28(Z1), C-term NH2; Z1=AEEA2-(γ-Glu)-CO-(CH2)14-CH3) | 0.0238 nM | 0.251 nM | 1.18 nM | – |
| YXEGTXTSDXSIXLDXIAQXKFIXXLIKGGPSSGAPPPS (Aib2, αMeF(2F)6, 4Pal10, αMeL13, Orn16, Aib20, K21(Z1), D-Glu24, αMeY25, K28(Z1), C-term NH2; Z1=AEEA2-(γ-Glu)-CO-(CH2)12-CO2H) | 0.0454 nM | 3.38 nM | 53.9 nM | – |
| YXEGTXTSDXSIXLDXIAQXKFIXXLIEGGPSSGAPPPSK (Aib2, αMeF(2F)6, 4Pal10, αMeL13, Orn16, Aib20, D-Glu24, αMeY25; acylated K21, K40 (groups as in name); C-terminal amide) [Y-Aib-EGT-αMeF(2F)-TSD-4Pal-SI-αMeL-LD-Orn-IAQ-Aib-K((2-[2-(2-Amino-ethoxy)-ethoxy]-acetyl)2-(γ-Glu)-CO-(CH2)12-CO2H)FI-(D-Glu)-αMeY-LIEGGPSSGAPPPSK((2-[2-(2-Am …, listing 1 of 3 here] | – | – | – | > 9950 nM |
| YXEGTXTSDXSIXLDXKAQXEFIXXLIEGGPSSGAPPPSK (Aib2, αMeF(2F)6, 4Pal10, αMeL13, Orn16, Aib20, D-Glu24, αMeY25; acylated K17, K40 (groups as in name); C-terminal amide) [Y-Aib-EGT-αMeF(2F)-TSD-4Pal-SI-αMeL-LD-Orn-K((2-[2-(2-Amino-ethoxy)-ethoxy]-acetyl)2-(γ-Glu)-CO-(CH2)10-CH3)AQ-Aib-EFI-(D-Glu)-αMeY-LIEGGP S SGAPPP …, listing 1 of 3 here] | – | – | – | > 9950 nM |
| YXEGTXTSDXSIXLDXKAQXEFIXXLIEGGPSSGAPPPSK (Aib2, αMeF(2F)6, 4Pal10, αMeL13, Orn16, Aib20, D-Glu24, αMeY25; acylated K17, K40 (groups as in name); C-terminal amide) [Y-Aib-EGT-αMeF(2F)-TSD-4Pal-SI-αMeL-LD-Orn-K((2-[2-(2-Amino-ethoxy)-ethoxy]-acetyl)-(γ-Glu)-(4-(4-tert-butylphenyl)butanoyl))AQ-Aib-EFI-(D-Glu)-αMeY-LIEGGPSSGAP …, listing 2 of 3 here] | – | – | – | > 9950 nM |
| YXEGTXTSDXSIXLDXIAQXKFIXXLIEGGPSSGAPPPSK (Aib2, αMeF(2F)6, 4Pal10, αMeL13, Orn16, Aib20, D-Glu24, αMeY25; acylated K21, K40 (groups as in name); C-terminal amide) [Y-Aib-EGT-αMeF(2F)-TSD-4Pal-SI-αMeL-LD-Orn-IAQ-Aib-K((2-[2-(2-Amino-ethoxy)-ethoxy]-acetyl)2-(γ-Glu)-(4-(4-tert-butylphenyl)butanoyl))FI-(D-Glu)-αMeY-LIEGGPSSGA …, listing 2 of 3 here] | – | – | – | > 9950 nM |
| YXEGTXTSDXSIXLDXKAQXEFIXXLIEGGPSSGAPPPSK (Aib2, αMeF(2F)6, 4Pal10, αMeL13, Orn16, Aib20, D-Glu24, αMeY25; acylated K17, K40 (groups as in name); C-terminal amide) [Y-Aib-EGT-αMeF(2F)-TSD-4Pal-SI-αMeL-LD-Orn-K((2-[2-(2-Amino-ethoxy)-ethoxy]-acetyl)2-(γ-Glu)-(4-(4-tert-butylphenyl)butanoyl))AQ-Aib-EFI-(D-Glu)-αMeY-LIEGGPSSGA …, listing 3 of 3 here] | – | – | – | > 9950 nM |
| YXEGTXTSDXSIXLDXIAQXKFIXXLIEGGPSSGAPPPSK (Aib2, αMeF(2F)6, 4Pal10, αMeL13, Orn16, Aib20, D-Glu24, αMeY25; acylated K21, K40 (groups as in name); C-terminal amide) [Y-Aib-EGT-αMeF(2F)-TSD-4Pal-SI-αMeL-LD-Orn-IAQ-Aib-K((2-[2-(2-Amino-ethoxy)-ethoxy]-acetyl)2-CO-(CH2)12-CO2H)FI-(D-Glu)-αMeY-LIEGGPSSGAPPP …, listing 3 of 3 here] | – | – | – | > 9950 nM |
